Experimental data taken from PMC8693953 (Molecular Biology of the Cell, 2021).
Where a chain is given by its changes, count along the chain named. Names may count otherwise.

B1: GST-CrkII (recombinant chicken CrkII, wild type) (natural protein, UniProt Q04929 1-305, looked up)
chain: MAGQFDSEDRGSWYWGRLSRGDAVSLLQGQRHGTFLVRDSGSIPGDFVLSVSESSRVSHYIVNSLGPAGGRRAGGEGPGAPGLNPTRFRIGDQEFDSLPSLLEFYKIHYLDTTTLIEPVSRSRQNSGVILRQEEVEYVRALFDFNGNDDEDLPFKKGDILKIRDKPEEQWWNAEDMDGKRGMIPVPYVEKCRPSSASVSTLTGGNQDSSHPQPLGGPEPGPYAQPSINTPLPNLQNGPFYARVIQKRVPNAYDKTALALEVGELVKVTKINMSGQWEGECNGKRGHFPFTHVRLLDQQNPDEDFS
B2: GST-CrkCSH3 (CrkII W276K, mutation at the C-terminal SH3 domain) (natural protein, chicken, UniProt Q04929 1-305, looked up)
chain: B1 chain with W276K
B3: GST-CrkSH2 (CrkII R38K, mutation at the N-terminal SH2 domain) (natural protein, chicken, UniProt Q04929 1-305, looked up)
chain: B1 chain with R38K

The binders below were run against proline-rich tyrosine kinase 2 (Pyk2) (UniProt Q14289 1-1009) (assay: pull-down).
proline-rich tyrosine kinase 2 (Pyk2), sequence (Q14289 whole entry): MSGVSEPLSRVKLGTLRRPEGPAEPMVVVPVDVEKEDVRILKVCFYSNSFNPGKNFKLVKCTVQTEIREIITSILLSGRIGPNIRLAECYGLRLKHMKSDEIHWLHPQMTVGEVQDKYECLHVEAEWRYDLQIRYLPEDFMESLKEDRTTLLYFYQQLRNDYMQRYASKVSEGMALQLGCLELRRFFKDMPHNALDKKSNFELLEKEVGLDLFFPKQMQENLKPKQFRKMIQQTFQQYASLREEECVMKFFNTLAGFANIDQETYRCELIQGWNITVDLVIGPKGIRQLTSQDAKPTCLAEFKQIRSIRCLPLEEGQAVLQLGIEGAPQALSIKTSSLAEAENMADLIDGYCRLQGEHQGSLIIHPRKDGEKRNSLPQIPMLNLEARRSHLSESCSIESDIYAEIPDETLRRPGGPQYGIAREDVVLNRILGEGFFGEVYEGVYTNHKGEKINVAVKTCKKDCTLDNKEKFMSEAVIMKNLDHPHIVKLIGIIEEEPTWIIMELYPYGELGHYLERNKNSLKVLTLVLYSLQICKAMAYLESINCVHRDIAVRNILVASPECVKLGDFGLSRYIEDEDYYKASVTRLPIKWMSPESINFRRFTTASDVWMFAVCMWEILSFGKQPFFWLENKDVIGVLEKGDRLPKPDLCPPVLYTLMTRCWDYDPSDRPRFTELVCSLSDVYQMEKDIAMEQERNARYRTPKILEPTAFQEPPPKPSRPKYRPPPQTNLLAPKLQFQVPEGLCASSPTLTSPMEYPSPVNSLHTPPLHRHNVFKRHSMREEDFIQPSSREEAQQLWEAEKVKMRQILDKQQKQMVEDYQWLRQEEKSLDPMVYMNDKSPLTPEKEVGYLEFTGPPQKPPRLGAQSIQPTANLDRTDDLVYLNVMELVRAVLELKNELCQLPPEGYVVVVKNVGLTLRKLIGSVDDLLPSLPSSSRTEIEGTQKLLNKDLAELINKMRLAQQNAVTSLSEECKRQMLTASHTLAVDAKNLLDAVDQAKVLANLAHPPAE

Row | Kd | Binder
1 | 150 ± 30 nM | B1
2 | 134 ± 34 nM | B2
3 | 508 ± 158 nM | B3
